Source: paper PMC7464140, “Cooperative Regulation of Campylobacter jejuni Heat-Shock Genes by HspR and HrcA” (Microorganisms, 2020)

B1: His-tagged HrcA (C. jejuni) (natural protein, UniProt Q9PPG2 1-264, looked up)
chain: MMKSRDKKDLILESIIQTYLLDNAPIGSNELNSNLCIPASTIRVYLKRLSDEGLITQLHISSGRIPTILTMQNYWQNFWEKEQDKNIHIKNESFLKELSKEFEIYCLVYGGRSLVLKEVLDLNTKFIVLDFEDEELVLKYEKEAWNFLQSLIGLDLSSIEKIALRVHFIDLVEKIASLRQNLICYRSNEERAYQIYQNDEFVKLLDCQIHRHFKESLEFEPLFKEGFMGLKVDAQFLGEDVNIILAGSVYTDYKKILQYIKEAA
notes: HrcA heat-shock transcriptional repressor of Campylobacter jejuni; it could also have been GST-HrcA; also called His-HrcA; recombinant HrcA protein; source: E. coli BL21 (DE3), pET15b-hrcA, purified (Ni2+-NTA)
B2: His-tagged HspR (C. jejuni) (natural protein, UniProt Q0P926 1-124, looked up)
chain: MEQHYDEPVYLISVVAKVLSIHPQTLRQYEREGLIEPSRTDGKIRLYSQRDIDRIKLILRLTRDMGINLAGVDVILKLKNQLHEFENLIDELRLELSKQQDKEAASKAVVKHKNSFDLIFYEKK
notes: HspR heat-shock transcriptional repressor of Campylobacter jejuni; Probably strain NCTC11168, the only C. jejuni strain named; also called His-HspR; recombinant His-tagged HspR; source: E. coli BL21 (DE3), pET15b-hspR, purified (Ni2+-NTA)

Target: the molecule itself
Experiment: cross-linking; in vitro chemical cross-linking of HrcA and HspR proteins with formaldehyde (Figure S2)

Row | Protein | stoichiometry N
1 | B1 | 2
2 | B2 | 2
